In paper PMC5796892, “Leishmania donovani Inhibitor of Serine Peptidases 2 Mediated Inhibition of Lectin Pathway and Upregulation of C5aR Signaling Promote Parasite Survival inside Host” (Frontiers in Immunology, 2018):

Key:
Conditions in all cases: both partners purified
C1 complex (C1qr2s2) [1] = biological target: T1, C1 complex (C1qr2s2) (human, UniProt P02745 23-245; P02746 28-253; P02747 29-245); experiment: ELISA; C1 complex at 12.5 µg/ml bound to human IgM-coated plate (37°C, 2 h); rLdISP1/rLdISP2 0-50 µM added, 37°C, 2 h; bound ISP detected with anti-ISP1 or anti-ISP2 antibody; Kd taken as the free ligand at half saturation
T1 construct: Complement C1q, subunit A; Complement C1q, subunit B; Complement C1q, subunit C; Complement C1r, serine protease of the C1 complex; the PDB entry was used only for docking and holds a fragment; Complement C1s, serine protease of the C1 complex; Held on plates coated with human IgM; also called C1 component; source: bought: Merk-Millipore (purified C1 complex); copies: + + + 2 + 2

C1 complex (C1qr2s2) [2] = biological target: T1, C1 complex (C1qr2s2); experiment: ELISA; C1 complex at 25 µg/ml bound to human IgM-coated plate (37°C, 2 h); rLdISP1/rLdISP2 0-50 µM added, 37°C, 2 h; bound ISP detected with anti-ISP1 or anti-ISP2 antibody; Kd taken as the free ligand at half saturation
C1 complex (C1qr2s2) [3] = biological target: T1, C1 complex (C1qr2s2); experiment: ELISA; C1 complex at 6.25 µg/ml bound to human IgM-coated plate (37°C, 2 h); rLdISP1/rLdISP2 0-50 µM added, 37°C, 2 h; bound ISP detected with anti-ISP1 or anti-ISP2 antibody; Kd taken as the free ligand at half saturation
C1 complex (C1qr2s2) [4] = biological target: T1, C1 complex (C1qr2s2); experiment: ELISA; C1 complex at 100 µg/ml bound to human IgM-coated plate (37°C, 2 h); rLdISP1/rLdISP2 0-50 µM added, 37°C, 2 h; bound ISP detected with anti-ISP1 or anti-ISP2 antibody; Kd taken as the free ligand at half saturation
C1 complex (C1qr2s2) [5] = biological target: T1, C1 complex (C1qr2s2); experiment: ELISA; C1 complex at 50 µg/ml bound to human IgM-coated plate (37°C, 2 h); rLdISP1/rLdISP2 0-50 µM added, 37°C, 2 h; bound ISP detected with anti-ISP1 or anti-ISP2 antibody; Kd taken as the free ligand at half saturation

B1: recombinant Leishmania donovani inhibitor of serine peptidases 1 (natural protein)
chain: MSYCKIEAPYPTAEAGEKRIIFALDPKGDEAEQEQYMLQLIPGRVLEMSRNDAANHQTLGGSIEQHTVEGWGAKFFHVKLAKQAASTLMHVHDEDHSEKVRKFVAMPNPPLFPYRSRCPVVVYLPNDAELRYGIWCGGQQMQAVTE
Ka (C1 complex (C1qr2s2) [1]): 280000 M⁻¹ | Kd (C1 complex (C1qr2s2) [1]): 3.5 µM | Ka (C1 complex (C1qr2s2) [2]): 330000 M⁻¹ | Kd (C1 complex (C1qr2s2) [2]): 2800 nM | Ka (C1 complex (C1qr2s2) [3]): 260000 M⁻¹ | Kd (C1 complex (C1qr2s2) [3]): 3.8 µM | Ka (C1 complex (C1qr2s2) [4]): 625000 M⁻¹ | Kd (C1 complex (C1qr2s2) [4]): 1600 nM | Ka (C1 complex (C1qr2s2) [5]): 450000 M⁻¹ | Kd (C1 complex (C1qr2s2) [5]): 2200 nM
